The values that follow come from patent publication US11352401.

The first assay has as its target T1, HLA-A*02 (human).
T1 construct: MHC monomer made peptide-receptive by UV cleavage of a UV-sensitive ligand; also called peptide-receptive MHC class I monomer
Kind of assay: UV peptide-exchange ELISA; ++++ = yield >75%.
Molecule ILLPYLQTL [ILLPYLQTL (SEQ ID NO: 393)] registered a peptide exchange yield above 75%. On to SLFKDQMEL [SLFKDQMEL (SEQ ID NO: 392)], for which the peptide exchange yield was above 75%.

The next assay has as its target T2, HLA-B*44 (human).
T2 construct: MHC monomer made peptide-receptive by UV cleavage of a UV-sensitive ligand; also called peptide-receptive MHC class I monomer
Kind of assay: UV peptide-exchange ELISA; +++ = yield >50%. The text has this:
Candidate peptides for T cell based therapies according to the present invention were further tested for their MHC binding capacity (affinity). The individual peptide-MHC complexes were produced by UV-ligand exchange, where a UV-sensitive peptide is cleaved upon UV-irradiation, and exchanged with the peptide of interest as analyzed. Only peptide candidates that can effectively bind and stabilize the peptide-receptive MHC molecules prevent dissociation of the MHC complexes. To determine the yield of the exchange reaction, an ELISA was performed based on the detection of the light chain (β2m) of stabilized MHC complexes. The assay was performed as generally described in Rodenko et al. (Rodenko et al., 2006).
96 well MAXISorp plates (NUNC) were coated over night with 2 ug/ml streptavidin in PBS at room temperature, washed 4× and blocked for 1 h at 37° C. in 2% BSA containing blocking buffer. […] Peptide-MHC monomers of the UV-exchange reaction were diluted 100-fold in blocking buffer. Samples were incubated for 1 h at 37° C., washed four times, incubated with 2 ug/ml HRP conjugated anti-β2m for 1h at 37° C., washed again and detected with TMB solution that is stopped with […]. Absorption was measured at 450 nm.
In general terms: In an ELISA, binding on a coated surface is turned into a signal by an enzyme label.
In the case of SEGSEPALLHSW [SEGSEPALLHSW (SEQ ID NO: 338)], the peptide exchange yield lay in the range of 50 to 75%. Molecule EEATGQFHVY [EEATGQFHVY (SEQ ID NO: 344)] returned a peptide exchange yield of 50 to 75%. Same read-out and setting: in the case of NEHPSNNW [NEHPSNNW (SEQ ID NO: 329)] it was 50 to 75%; in that of AEQDMRELTY [AEQDMRELTY (SEQ ID NO: 349)], 50 to 75%; in that of AELDKLTSV [AELDKLTSV (SEQ ID NO: 363)], 50 to 75%.

In turn, AEMLESVIKNY [AEMLESVIKNY (SEQ ID NO: 321)] showed a peptide exchange yield of 50 to 75%. AEVPTGVII [AEVPTGVII (SEQ ID NO: 360)] had a peptide exchange yield of 50 to 75%. The same measure, in the same setting: in the case of EEVNYINTF [EEVNYINTF (SEQ ID NO: 351)] it was 50 to 75%; in that of SEKGVIQVY [SEKGVIQVY (SEQ ID NO: 362)], 50 to 75%; in that of EEIEGKGSFTYF [EEIEGKGSFTYF (SEQ ID NO: 341)], 50 to 75%. Same read-out and setting: to GECDVFKEIL [GECDVFKEIL (SEQ ID NO: 350)] belongs 50 to 75%; to SEFMQVIF [SEFMQVIF (SEQ ID NO: 323)], 50 to 75%; to YEIEARNQVF [YEIEARNQVF (SEQ ID NO: 327)], 50 to 75%. With TEDPTILRI [TEDPTILRI (SEQ ID NO: 354)], the peptide exchange yield fell in the range of 50 to 75%.

The molecule KEGDLGGKQW [KEGDLGGKQW (SEQ ID NO: 330)] registered a peptide exchange yield of 50 to 75%.

The molecule TDSIHAWTF [TDSIHAWTF (SEQ ID NO: 324)] returned a peptide exchange yield of 50 to 75%. The same measure, in the same setting: to AETPIQNVI [AETPIQNVI (SEQ ID NO: 364)] belongs 50 to 75%; to HEFSSPSHL [HEFSSPSHL (SEQ ID NO: 342)], 50 to 75%. As to ALNPYQYQY [ALNPYQYQY (SEQ ID NO: 347)], the peptide exchange yield was 50 to 75%. Turning to EDAQGHIW [EDAQGHIW (SEQ ID NO: 331)], the peptide exchange yield was 50 to 75%.

Consider QEMQHFLGL [QEMQHFLGL (SEQ ID NO: 326)], for which the peptide exchange yield lay in the range of 50 to 75%.

The molecule AETLSTIQI [AETLSTIQI (SEQ ID NO: 333)] showed a peptide exchange yield of 50 to 75%.

Take RELENCFQIQ [RELENCFQIQ (SEQ ID NO: 357)]: the peptide exchange yield is 50 to 75%. On the same count and under the same terms, to EEGRVYLF [EEGRVYLF (SEQ ID NO: 356)] belongs 50 to 75%; to AEIQGNINHV [AEIQGNINHV (SEQ ID NO: 348)], 50 to 75%.
